Test results as given in patent publication EP1746107B1.
Where two headings read alike, the source gives them in different places. One block for each substance: values may come before it.

Columns and labels:
[1] = target: human C1q (Quidel, San Diego, CA) (human) (UniProt P02745); test: cell-based or functional assay
[2] = target: human C1q (Quidel, San Diego, CA) (human) (UniProt P02745); test: C1q binding ELISA (antibody coated, 2 µg/ml C1q added)
[3] = target: CD20 antigen on WIL2-S cells (UniProt P11836); test: flow cytometry on WIL2-S cells expressing CD20
CD20 antigen on WIL2-S cells, sequence (P11836 whole entry): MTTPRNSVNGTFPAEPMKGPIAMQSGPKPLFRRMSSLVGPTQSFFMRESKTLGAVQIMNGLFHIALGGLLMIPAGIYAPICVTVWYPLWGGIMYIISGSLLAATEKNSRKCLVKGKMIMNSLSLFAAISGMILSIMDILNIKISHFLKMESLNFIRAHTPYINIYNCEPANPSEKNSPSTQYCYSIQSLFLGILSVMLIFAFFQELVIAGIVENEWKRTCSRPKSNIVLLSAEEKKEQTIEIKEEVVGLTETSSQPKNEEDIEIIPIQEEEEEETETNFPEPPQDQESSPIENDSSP

[4] = target: human C1q (Quidel, San Diego, CA) (human) (UniProt P02745); test: C1q binding ELISA (antibody coated, 2 µg/ml C1q added); remark: listed apart in the source
[5] = target: human C1q (Quidel, San Diego, CA) (human) (UniProt P02745); test: C1q binding ELISA (antibody coated up to 100 µg/ml, 2 µg/ml C1q added)
[6] = target: FcγRI α subunit-GST fusion (UniProt P12314); test: ELISA on coated FcγRI α subunit-GST, monomeric IgG at 10 µg/ml
FcγRI α subunit-GST fusion, sequence (P12314 16-292): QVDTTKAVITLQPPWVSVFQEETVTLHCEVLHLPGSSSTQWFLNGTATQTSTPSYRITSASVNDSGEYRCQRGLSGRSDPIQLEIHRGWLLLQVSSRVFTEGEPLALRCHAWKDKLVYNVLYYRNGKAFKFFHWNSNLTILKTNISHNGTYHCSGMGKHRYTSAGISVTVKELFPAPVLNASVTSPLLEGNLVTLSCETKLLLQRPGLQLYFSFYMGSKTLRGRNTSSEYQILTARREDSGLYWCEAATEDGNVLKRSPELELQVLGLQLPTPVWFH

[7] = target: FcγRIIIa α subunit ECD-6His-GST fusion protein (UniProt P08637); test: ELISA on coated receptor ECD-6His-GST, E27:chimeric IgE:VEGF immune complex
FcγRIIIa α subunit ECD-6His-GST fusion protein, sequence (P08637 17-208): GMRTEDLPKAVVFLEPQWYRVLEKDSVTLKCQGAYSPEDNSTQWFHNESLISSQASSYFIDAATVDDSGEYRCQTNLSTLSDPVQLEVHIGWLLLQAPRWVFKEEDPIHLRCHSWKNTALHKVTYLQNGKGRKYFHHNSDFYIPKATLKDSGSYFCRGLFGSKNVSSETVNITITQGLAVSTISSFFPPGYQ

[8] = target: FcγRIIa α subunit ECD-6His-GST fusion protein (UniProt P12318); test: as above
FcγRIIa α subunit ECD-6His-GST fusion protein, sequence (P12318 34-217): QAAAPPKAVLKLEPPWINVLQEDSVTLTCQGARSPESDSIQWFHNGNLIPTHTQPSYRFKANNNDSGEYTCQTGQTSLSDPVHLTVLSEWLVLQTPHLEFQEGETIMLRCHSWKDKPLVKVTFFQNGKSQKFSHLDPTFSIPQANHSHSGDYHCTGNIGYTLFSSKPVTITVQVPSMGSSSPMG

[9] = target: FcγRIIb α subunit ECD-6His-GST fusion protein (UniProt P31994); test: as above
FcγRIIb α subunit ECD-6His-GST fusion protein, sequence (P31994 43-217): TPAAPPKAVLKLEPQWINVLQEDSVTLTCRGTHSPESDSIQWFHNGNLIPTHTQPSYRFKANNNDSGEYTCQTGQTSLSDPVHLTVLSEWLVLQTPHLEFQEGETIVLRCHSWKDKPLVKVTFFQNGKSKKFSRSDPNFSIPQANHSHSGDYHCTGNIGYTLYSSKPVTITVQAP

human C1q (Quidel, San Diego, CA) (human), sequence (P02745 23-245 limits assumed, chain 1 of 3): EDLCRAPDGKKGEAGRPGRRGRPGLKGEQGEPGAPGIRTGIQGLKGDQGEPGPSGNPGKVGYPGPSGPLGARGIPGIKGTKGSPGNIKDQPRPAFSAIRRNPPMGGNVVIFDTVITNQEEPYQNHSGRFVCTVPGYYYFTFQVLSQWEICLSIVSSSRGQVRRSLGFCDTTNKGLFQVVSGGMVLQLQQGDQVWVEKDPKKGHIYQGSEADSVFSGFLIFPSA
human C1q (Quidel, San Diego, CA) (human), sequence (P02746 28-253 limits assumed, chain 2 of 3, further chain): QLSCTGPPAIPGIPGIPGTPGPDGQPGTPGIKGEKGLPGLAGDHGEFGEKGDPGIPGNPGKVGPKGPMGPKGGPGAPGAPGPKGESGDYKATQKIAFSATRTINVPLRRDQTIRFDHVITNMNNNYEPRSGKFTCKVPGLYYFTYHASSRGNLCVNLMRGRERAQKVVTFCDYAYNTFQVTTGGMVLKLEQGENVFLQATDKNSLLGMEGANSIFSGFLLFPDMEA
human C1q (Quidel, San Diego, CA) (human), sequence (P02747 29-245 limits assumed, chain 3 of 3, further chain): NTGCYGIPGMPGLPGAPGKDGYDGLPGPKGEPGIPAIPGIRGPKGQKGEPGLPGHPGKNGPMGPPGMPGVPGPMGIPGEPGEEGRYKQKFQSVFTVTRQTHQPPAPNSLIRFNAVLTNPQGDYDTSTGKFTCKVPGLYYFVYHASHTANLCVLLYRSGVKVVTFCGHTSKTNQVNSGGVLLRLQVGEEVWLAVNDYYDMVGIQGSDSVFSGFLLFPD

- CDC compared to wild type C2B8 [1]: 2 fold
- fold better at binding human C1q than wild type C2B8 [2]: 3 fold
Substance: C2B8 double mutant K326A-E333A (antibody)

- CDC compared to wild type C2B8 [1]: 2 fold
- fold better at binding human C1q than wild type C2B8 [2]: 3 fold
Substance: C2B8 double mutant K326M-E333S (antibody)

- CDC compared to wild type C2B8 [1]: 3 fold
Substance: C2B8 double mutant K326W-E333S (antibody)

- CDC (% of wild type) [1]: 108
- CD20 binding (EC50), percentage of the wild type (% of wild type) [3]: 89
- decrease in binding to C1q compared to wild type C2B8 [2]: 30%
Substance: C2B8 mutant E318A (antibody)

- EC50 [2]: 0.98 µg/mL
- increase in binding to C1q [2]: 30%
Substance: C2B8 mutant E333A (antibody)

- EC50 [2]: 1.22 µg/mL
Substance: C2B8 mutant E333D (antibody)

- EC50 [2]: 1.14 µg/mL
Substance: C2B8 mutant E333G (antibody)

- EC50 [2]: 1.52 µg/mL
Substance: C2B8 mutant E333Q (antibody)

- EC50 [2]: 0.81 µg/mL
- fold increase in binding to C1q compared to wild type [2]: 2 fold
Substance: C2B8 mutant E333S (antibody)

- EC50 [2]: 1.18 µg/mL
Substance: C2B8 mutant E333V (antibody)

- CDC (% of wild type) [1]: 108
- CD20 binding (EC50), percentage of the wild type (% of wild type) [3]: 102
Substance: C2B8 mutant K320A (antibody)

- EC50 [2]: 1.03 µg/mL
- increase in binding to C1q [2]: 30%
Substance: C2B8 mutant K326A (antibody)

- EC50 [2]: 0.76 µg/mL
- fold increase in binding to C1q compared to wild type [4]: 2 fold
Substance: C2B8 mutant K326D (antibody)

- EC50 [2]: 1.08 µg/mL
- fold increase in binding to C1q compared to wild type [4]: 2 fold
Substance: C2B8 mutant K326E (antibody)

- EC50 [2]: 0.95 µg/mL
Substance: C2B8 mutant K326G (antibody)

- EC50 [2]: 0.67 µg/mL
- fold increase in binding to C1q compared to wild type [4]: 2 fold
Substance: C2B8 mutant K326M (antibody)

- EC50 [2]: 1.3 µg/mL
Substance: C2B8 mutant K326V (antibody)

- EC50 [2]: 0.47 µg/mL
- fold increase in binding to C1q compared to wild type [2]: 5 fold
- fold increase in binding to C1q compared to wild type [4]: 2 fold
Substance: C2B8 mutant K326W (antibody)

- EC50 [2]: 1.07 µg/mL
Substance: C2B8 mutant K334A (antibody)

- CD20 binding (EC50), percentage of the wild type (% of wild type) [3]: 112
Substance: C2B8 mutant P329A (antibody)

- CD20 binding (EC50), percentage of the wild type (% of wild type) [3]: 103
- fold lower than wild type C2B8 in binding to C1q [5]: 60 fold
Substance: C2B8 mutant P331A (antibody)

- increase in C1q binding [2]: 50%
Substance: C2B8 mutant with A327 of the human IgG1 constant region changed to glycine (antibody)

- binding, percentage of the wild type (% of wild type) [6]: 93
- binding, percentage of the wild type (% of wild type) [7]: 104
- binding, percentage of the wild type (% of wild type) [8]: 113
- binding, percentage of the wild type (% of wild type) [9]: 106
Substance: E27 anti-IgE antibody mutant E318A

- binding, percentage of the wild type (% of wild type) [6]: 102
- binding, percentage of the wild type (% of wild type) [7]: 72
- binding, percentage of the wild type (% of wild type) [9]: 83
Substance: E27 anti-IgE antibody mutant K320A

- binding, percentage of the wild type (% of wild type) [8]: 109
- binding, percentage of the wild type (% of wild type) [9]: 101
Substance: E27 anti-IgE antibody mutant K322A

- binding, percentage of the wild type (% of wild type) [6]: 104
- binding, percentage of the wild type (% of wild type) [7]: 85
Substance: E27 anti-IgE antibody mutant P329A

- binding, percentage of the wild type (% of wild type) [6]: 74
- binding, percentage of the wild type (% of wild type) [7]: 73
- binding, percentage of the wild type (% of wild type) [8]: 86
- binding, percentage of the wild type (% of wild type) [9]: 58
Substance: E27 anti-IgE antibody mutant P331A
